Measurements published in patent US20160347808A1 (IMMATICS BIOTECHNOLOGIES, published 2016).
Values belong to the binder of their own block, whether it stands above or below them. Square brackets hold non-standard residues; d marks the D form. Ends that are not written are not given here. pS = N[C@@H](COP(=O)(O)O)C(=O)O

Target: T1, HLA-A*02:01 (peptide-receptive MHC class I monomer from UV-ligand exchange) (human)
T1 construct: Monomers were captured on streptavidin-coated plates
Experiment: UV-exchange ELISA (anti-b2m); exchange yield grade: + >=10%, ++ >=20%, +++ >=50%, ++++ >=75%
Text: Candidate peptides for T cell based therapies according to the present invention were further tested for their MHC binding capacity (affinity). The individual peptide-MHC complexes were produced by UV-ligand exchange, where a UV-sensitive peptide is cleaved upon UV-irradiation, and exchanged with the peptide of interest as analyzed. Only peptide candidates that can effectively bind and stabilize the peptide-receptive MHC molecules prevent dissociation of the MHC complexes. To determine the yield of the exchange reaction, an ELISA was performed based on the detection of the light chain (β2m) of stabilized MHC complexes. The assay was performed as generally described in Rodenko et al. (Rodenko et al., 2006).
96 well MAXISorp plates (NUNC) were coated over night with 2 ug/ml streptavidin in PBS at room temperature, washed 4× and blocked for 1 h at 37° C. in 2% BSA containing blocking buffer. Refolded HLA-A*02:01/MLA-001 monomers served as standards, covering the range of 15-500 ng/ml. Peptide-MHC monomers of the UV-exchange reaction were diluted 100 fold in blocking buffer. Samples were incubated for 1 h at 37° C., washed four times, incubated with 2 ug/ml HRP conjugated anti-β2m for 1 h at 37° C., washed again and detected with TMB solution that is stopped with […]. Absorption was measured at 450 nm. Candidate peptides that show a high exchange yield (preferably higher than 50%, most preferred higher than 75%) are generally preferred for a generation and production of antibodies or fragments thereof, and/or T cell receptors or fragments thereof, as they show sufficient avidity to the MHC molecules and prevent dissociation of the MHC complexes.

Binder: LLLDTVTMQV [peptide LLLDTVTMQV (SEQ ID NO 172)]
peptide exchange yield: 50 to 75%

Binder: KMSEKILLL [peptide KMSEKILLL (SEQ ID NO 186)]
peptide exchange yield: 50 to 75%

Binder: RLLDFPEAMVL [peptide RLLDFPEAMVL (SEQ ID NO 165)]
peptide exchange yield: ≥ 75%

Binder: RTLDKVLEV [peptide RTLDKVLEV (SEQ ID NO 176)]
peptide exchange yield: 20 to 50%

Binder: ALLQGAIESV [peptide ALLQGAIESV (SEQ ID NO 177)]
peptide exchange yield: 50 to 75%

Binder: SLNKWIFTV [peptide SLNKWIFTV (SEQ ID NO 182)]
peptide exchange yield: ≥ 75%

Binder: GLLEARGILGL [peptide GLLEARGILGL (SEQ ID NO 166)]
peptide exchange yield: 50 to 75%

Binder: ILLDDNMQIRL [peptide ILLDDNMQIRL (SEQ ID NO 174)]
peptide exchange yield: ≥ 75%

Binder: QLFSEIHNL [peptide QLFSEIHNL (SEQ ID NO 191)]
peptide exchange yield: ≥ 75%

Binder: FLVDGPRVQL [peptide FLVDGPRVQL (SEQ ID NO 188)]
peptide exchange yield: 50 to 75%

Binder: TLLGGKEAQALGV [peptide TLLGGKEAQALGV (SEQ ID NO 175)]
peptide exchange yield: 50 to 75%

Binder: GLIRFPLMTI [peptide GLIRFPLMTI (SEQ ID NO 168)]
peptide exchange yield: 50 to 75%

Binder: TLQEVVTGV [peptide TLQEVVTGV (SEQ ID NO 183)]
peptide exchange yield: 50 to 75%

Binder: ALAAARVEL [peptide ALAAARVEL (SEQ ID NO 17)]
peptide exchange yield: 50 to 75%

Binder: SVIDHIHLISV [peptide SVIDHIHLISV (SEQ ID NO 167)]
peptide exchange yield: 50 to 75%

Binder: YLAHFIEGL [peptide YLAHFIEGL (SEQ ID NO 169)]
peptide exchange yield: 50 to 75%

B1: peptide RLLJPLSSA (SEQ ID NO 179) (peptide)
peptide: RLL[pS]PLSSA
notes: Printed with J for phosphoserine; the plain residue at position 4 is serine
peptide exchange yield: 50 to 75%

Binder: SLLDENNVSSYL [peptide SLLDENNVSSYL (SEQ ID NO 184)]
peptide exchange yield: 50 to 75%

Binder: RLQETEGMVAV [peptide RLQETEGMVAV (SEQ ID NO 171)]
peptide exchange yield: 20 to 50%

Binder: GLHNVVYGI [peptide GLHNVVYGI (SEQ ID NO 187)]
peptide exchange yield: 50 to 75%

The next lines start with the values.

peptide exchange yield: 50 to 75%
Binder: ALAGGITMV [peptide ALAGGITMV (SEQ ID NO 170)]

peptide exchange yield: 50 to 75%
Binder: FLSSLKGGLL [peptide FLSSLKGGLL (SEQ ID NO 18)]

peptide exchange yield: ≥ 75%
Binder: KMLDEILLQL [peptide KMLDEILLQL (SEQ ID NO 164)]

peptide exchange yield: 50 to 75%
Binder: NLFDLGGQYLRV [peptide NLFDLGGQYLRV (SEQ ID NO 181)]

peptide exchange yield: 50 to 75%
Binder: AMAEMVLQV [peptide AMAEMVLQV (SEQ ID NO 190)]

peptide exchange yield: 50 to 75%
Binder: VLVDQSWVL [peptide VLVDQSWVL (SEQ ID NO 16)]

peptide exchange yield: 50 to 75%
Binder: KLGDLMVLL [peptide KLGDLMVLL (SEQ ID NO 173)]

peptide exchange yield: 20 to 50%
Binder: YLFREPATI [peptide YLFREPATI (SEQ ID NO 178)]

peptide exchange yield: 50 to 75%
Binder: VLYTGVVRV [peptide VLYTGVVRV (SEQ ID NO 185)]

peptide exchange yield: 50 to 75%
Binder: AISEVIGKITA [peptide AISEVIGKITA (SEQ ID NO 189)]
